# Assay results published in patent publication US20200157212A1 (Pfizer, published 2020).
# Residue numbers refer to the chain shown, from its start.
# T1: Terbium (Tb) labeled-SNAP tagged ROBO2 expressed on HEK293 cells (Homo sapiens (Human), UniProt Q9HCK4 22-1378, terbium label on the SNAP tag)
# T1 construct: also called Tb-labeled ROBO2 cells; ROBO2 expressing cells; not shown: SNAP tag
# T1 sequence: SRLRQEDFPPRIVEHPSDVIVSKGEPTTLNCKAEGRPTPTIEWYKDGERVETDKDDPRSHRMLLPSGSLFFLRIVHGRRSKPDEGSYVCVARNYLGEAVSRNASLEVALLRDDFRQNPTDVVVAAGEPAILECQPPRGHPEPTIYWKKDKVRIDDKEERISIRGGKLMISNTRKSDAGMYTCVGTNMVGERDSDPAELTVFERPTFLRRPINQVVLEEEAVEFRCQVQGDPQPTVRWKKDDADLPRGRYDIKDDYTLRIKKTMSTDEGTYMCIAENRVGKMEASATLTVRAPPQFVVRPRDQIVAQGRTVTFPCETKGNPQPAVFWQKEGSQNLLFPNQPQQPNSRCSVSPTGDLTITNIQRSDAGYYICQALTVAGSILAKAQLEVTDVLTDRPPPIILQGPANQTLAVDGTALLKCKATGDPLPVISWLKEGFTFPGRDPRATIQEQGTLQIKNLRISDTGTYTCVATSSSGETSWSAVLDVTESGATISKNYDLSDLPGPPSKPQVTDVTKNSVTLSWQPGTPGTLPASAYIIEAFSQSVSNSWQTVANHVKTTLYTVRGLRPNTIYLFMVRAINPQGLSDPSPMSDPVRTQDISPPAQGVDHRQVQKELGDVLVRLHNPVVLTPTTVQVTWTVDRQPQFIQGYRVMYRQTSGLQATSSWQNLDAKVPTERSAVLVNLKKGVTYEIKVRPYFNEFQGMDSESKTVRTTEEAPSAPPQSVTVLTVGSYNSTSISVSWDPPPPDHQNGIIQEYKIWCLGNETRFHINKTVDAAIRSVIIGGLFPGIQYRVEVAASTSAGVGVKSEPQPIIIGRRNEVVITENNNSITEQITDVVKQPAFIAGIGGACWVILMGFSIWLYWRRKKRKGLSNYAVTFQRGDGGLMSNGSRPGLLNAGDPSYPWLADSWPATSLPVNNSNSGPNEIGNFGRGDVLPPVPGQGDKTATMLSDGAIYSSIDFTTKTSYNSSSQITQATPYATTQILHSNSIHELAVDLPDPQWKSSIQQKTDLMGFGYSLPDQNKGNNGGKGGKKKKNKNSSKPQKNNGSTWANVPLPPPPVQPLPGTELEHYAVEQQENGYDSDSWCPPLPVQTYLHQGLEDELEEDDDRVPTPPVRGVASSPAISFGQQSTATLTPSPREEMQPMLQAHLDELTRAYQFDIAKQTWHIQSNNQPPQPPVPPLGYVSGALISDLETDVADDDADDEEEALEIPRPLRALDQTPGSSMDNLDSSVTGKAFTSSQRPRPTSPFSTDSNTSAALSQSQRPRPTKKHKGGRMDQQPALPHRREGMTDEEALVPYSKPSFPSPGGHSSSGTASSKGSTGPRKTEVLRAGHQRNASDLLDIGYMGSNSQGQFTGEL
# T2: Human ROBO2 Ig1-Ig2-His (human, UniProt Q9HCK4 31-220)
# T2 construct: the His tag is named only in the SPR paragraphs; the Octet and ELISA paragraphs print 'ROBO2 Ig1-Ig2' without a tag; also called ROBO2 Ig1-2; Human ROBO2 Ig 1,2
# T2 sequence: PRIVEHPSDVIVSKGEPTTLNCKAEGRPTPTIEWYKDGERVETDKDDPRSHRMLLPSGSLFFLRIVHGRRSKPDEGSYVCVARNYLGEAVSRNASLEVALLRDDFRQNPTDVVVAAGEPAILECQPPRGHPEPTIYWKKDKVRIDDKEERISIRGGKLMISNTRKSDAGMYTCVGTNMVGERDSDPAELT
# B1: Abcs35-F (antibody, human IgG1, kappa)
# heavy: QVQLVQSGAEVKKPGASVKVSCKASGYTFTGYYMHWVRQAPGQGLEWMGWINPKNGDTEFPQKFQGRVTMTRDTSISTAYMDLSRLRSDDTAVYYCARESGDDAFDIWGQGTMVTVSSASTKGPSVFPLAPSSKSTSGGTAALGCLVKDYFPEPVTVSWNSGALTSGVHTFPAVLQSSGLYSLSSVVTVPSSSLGTQTYICNVNHKPSNTKVDKKVEPKSCDKTHTCPPCPAPEAAGAPSVFLFPPKPKDTLMISRTPEVTCVVVDVSHEDPEVKFNWYVDGVEVHNAKTKPREEQYNSTYRVVSVLTVLHQDWLNGKEYKCKVSNKALPAPIEKTISKAKGQPREPQVYTLPPSREEMTKNQVSLTCLVKGFYPSDIAVEWESNGQPENNYKTTPPVLDSDGSFFLYSKLTVDKSRWQQGNVFSCSVMHEALHNHYTQKSLSLSPGK
# light: DIVMTQSPSSLSASVGDRVTITCRASQSISSYLNWYQQKPGKAPKLLIYAASSLQSGVPSRFSGSGSGTDFTLTISSLQPEDFATYYCQQSVGLFFGGGTKVEIKRTVAAPSVFIFPPSDEQLKSGTASVVCLLNNFYPREAKVQWKVDNALQSGNSQESVTEQDSKDSTYSLSSTLTLSKADYEKHKVYACEVTHQGLSSPVTKSFNRGEC
# notes: germlined variant of Abcs35
# B2: Abcs35-K (antibody, human IgG1, kappa)
# heavy: B1 heavy with Q1E, D82E
# light: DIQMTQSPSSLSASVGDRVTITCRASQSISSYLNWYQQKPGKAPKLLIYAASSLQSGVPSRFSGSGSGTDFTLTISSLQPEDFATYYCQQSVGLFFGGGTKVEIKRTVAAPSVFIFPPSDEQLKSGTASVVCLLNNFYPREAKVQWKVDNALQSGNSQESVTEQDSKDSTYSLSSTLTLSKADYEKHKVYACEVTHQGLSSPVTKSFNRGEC
# notes: germlined variant of Abcs35
# B3: Abcs35-G (antibody, human IgG1, kappa)
# heavy: B1 heavy with S77T, D82E
# light: B1 light
# notes: germlined variant of Abcs35
# B4: Abcs35-N (antibody, human IgG1, kappa)
# heavy: B1 heavy with S77T, D82E
# light: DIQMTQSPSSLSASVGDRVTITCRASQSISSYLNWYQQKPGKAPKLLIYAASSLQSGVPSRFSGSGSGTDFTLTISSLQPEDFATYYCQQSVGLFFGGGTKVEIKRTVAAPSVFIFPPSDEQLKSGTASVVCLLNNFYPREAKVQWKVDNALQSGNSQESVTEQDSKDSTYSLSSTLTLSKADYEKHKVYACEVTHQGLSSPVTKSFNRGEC
# notes: germlined variant of Abcs35
# B5: Abcs35-H (antibody, human IgG1, kappa)
# heavy: B1 heavy with D82E
# light: B1 light
# notes: germlined variant of Abcs35
# B6: Abcs35-M (antibody, human IgG1, kappa)
# heavy: B1 heavy
# light: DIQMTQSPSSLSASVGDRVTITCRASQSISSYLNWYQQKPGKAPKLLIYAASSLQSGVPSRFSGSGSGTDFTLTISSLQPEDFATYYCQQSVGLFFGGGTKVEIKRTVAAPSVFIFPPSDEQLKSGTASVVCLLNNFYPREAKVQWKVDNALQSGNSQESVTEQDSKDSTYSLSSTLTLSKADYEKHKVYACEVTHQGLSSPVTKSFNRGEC
# notes: germlined variant of Abcs35
# B7: Abcs35-I (antibody, human IgG1, kappa)
# heavy: B1 heavy with Q1E
# light: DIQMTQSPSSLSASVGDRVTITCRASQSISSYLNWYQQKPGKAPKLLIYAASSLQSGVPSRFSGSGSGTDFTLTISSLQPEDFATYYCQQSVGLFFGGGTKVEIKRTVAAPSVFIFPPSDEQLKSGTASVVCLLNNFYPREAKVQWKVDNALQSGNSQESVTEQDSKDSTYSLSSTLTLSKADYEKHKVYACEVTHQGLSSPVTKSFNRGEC
# notes: germlined variant of Abcs35
# B8: Abcs35-O (antibody, human IgG1, kappa)
# heavy: B1 heavy with D82E
# light: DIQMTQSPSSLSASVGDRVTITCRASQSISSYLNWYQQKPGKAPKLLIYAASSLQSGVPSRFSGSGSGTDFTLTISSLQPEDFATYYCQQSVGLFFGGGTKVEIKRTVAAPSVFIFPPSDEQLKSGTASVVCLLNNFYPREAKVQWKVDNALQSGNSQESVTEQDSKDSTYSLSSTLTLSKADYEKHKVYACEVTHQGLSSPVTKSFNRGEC
# notes: germlined variant of Abcs35
# B9: Abcs35-L (antibody, human IgG1, kappa)
# heavy: B1 heavy with S77T
# light: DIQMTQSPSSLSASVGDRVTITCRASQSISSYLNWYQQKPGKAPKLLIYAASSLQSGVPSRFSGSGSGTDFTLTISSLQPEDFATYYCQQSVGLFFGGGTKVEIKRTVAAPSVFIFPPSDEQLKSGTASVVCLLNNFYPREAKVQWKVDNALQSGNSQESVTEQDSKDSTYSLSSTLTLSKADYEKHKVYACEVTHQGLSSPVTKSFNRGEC
# notes: germlined variant of Abcs35
# Molecular target: T1, Terbium (Tb) labeled-SNAP tagged ROBO2 …
# Assay: HTRF competition, competitor d2-SLIT2-N, ROBO2 HEK293 cells
# Experimental: A ROBO2-SLIT2-N homogenous time resolved fluorescence (HTRF) assay was used to identify antibodies that were capable of blocking SLIT2-N binding to ROBO2. In this assay, terbium (Tb) labeled-SNAP tagged ROBO2 expressing HEK293 cells were incubated with 5 nM d2-labeled SLIT-2N in the presence of 1 nM anti-ROBO2 antibodies for 1 hour. After incubation, fluorescence at 665 nm and 620 nm was measured on an Envision multilabel plate reader. […] Maximal signal was defined as the HTRF ratio of Tb-labeled ROBO2 cells with d2-labeled SLIT2-N in the absence of antibody, the minimum signal was defined as the HTRF ratio of Tb-labeled ROBO2 expressing HEK293 cells only. One nanomolar (nM) parental antibody, 93H2, was unable to block the HTRF assay, therefore this concentration was selected to identify clones with a higher affinity than 93H2 (Table 2, HTRF Ratio column). […] Antibodies derived from chain (Abcs series) or CDR shuffling (CTIR-2 series) were evaluated in 11-point, 5-fold dilution series with a top concentration of 1500 nM (Table 2 HTRF IC₅₀).
# Neutralization of SLIT2-N binding to ROBO2 was assessed ROBO2:SLIT2-N homogenous time resolved fluorescence (HTRF) assay as described in Example 2. Briefly the HTRF assay was performed as follows: terbium (Tb) labeled-SNAP tagged ROBO2 expressing HEK293 cells were incubated with d2-labeled SLIT-2N in the presence of anti-ROBO2 antibodies for 1 hour. After incubation, fluorescence at 665 nm and 620 nm was measured on an Envision multi-label plate reader. […] Maximal signal was defined as the HTRF ratio of Tb-labeled ROBO2 cells with d2-labeled SLIT2-N in the absence of antibody, the minimum signal was defined as the HTRF ratio of Tb-labeled ROBO2 expressing HEK293 cells only.
row,IC50 [pM],Binder
1,76.6,B1
2,75.2,B2
3,75.4,B3
4,90.3,B4
5,82.9,B5
6,59.1,B6
7,74.5,B7
8,62.4,B8
9,79.6,B9

# Molecular target: T2, Human ROBO2 Ig1-Ig2-His
# Assay: SPR, antibody on CM5 chip, ROBO2 Ig1-Ig2-His
# Experimental: Based upon several criteria, Abcs25 and Abcs35 were selected for further characterization. Using flow cytometry, improvement in the binding EC₅₀ to human ROBO2 relative to the parental 93H2 was evaluated. Starting at 6.7 nM, 11-point, 3-fold dilution series were made for each antibody and used to stain HEK293 overexpressing human ROBO2 as described above for the ROBO2 fold selectivity (Example 2). […] In addition to measuring improved binding to human ROBO2, it was important to ensure that high affinity binding to both cynomolgus monkey ROBO2 and rat ROBO2 was maintained. Using HEK293 cells overexpressing either cynomolgus monkey ROBO2 or rat ROBO2, the relative dose-dependent binding of 93H2, Abcs25 and Abcs35 was evaluated as described above. High affinity binding to both cynomolgus monkey and rat ROBO2 was maintained in Abcs25 and Abcs35 (Table 4). […] Briefly, Abcs35 was immobilized to 300 resonance units (RU) on a CM5 chip. Association of ROBO2 Ig1-Ig2-His (ROBO2) was measured over 5 minutes and dissociation was followed for a period of 10 minutes.
# Affinity was measured by standard SPR methods as described in Example 3. Briefly, antibodies were immobilized to a specific measure of resonance units (RU) on a CM5 chip. Association of ROBO2 Ig1-Ig2-His (ROBO2) and dissociation will be followed for a period of time.
row,Kd [pM],Binder
1,194,B1
2,142,B2
3,131,B3
4,146,B4
5,194,B5
6,217,B6
7,145,B7
8,217,B8
9,149,B9
